# B1: Arc ΔH1 (aa 33–70 deleted) (natural protein, mouse, UniProt Q9WV31 1-396, looked up)
# chain: MELDHMTTGGLHAYPAPRGGPAAKPNVILQIGLENNLDGYVPTGDSQRWKKSIKACLCRCQETIANLERWVKREMHVWREVFYRLERWADRLESMGGKYPVGSEPARHTVSVGVGGPEPYCQEADGYDYTVSPYAITPPPAAGELPEQESVEAQQYQSWGPGEDGQPSPGVDTQIFEDPREFLSHLEEYLRQVGGSEEYWLSQIQNHMNGPAKKWWEFKQGSVKNWVEFKKEFLQYSEGTLSREAIQRELELPQKQGEPLDQFLWRKRDLYQTLYVDAEEEEIIQYVVGTLQPKLKRFLRHPLPKTLEQLIQRGMEVQDGLEQAAEPSGTPLPTEDETEALTPALTSESVASDRTQPE
# notes: Arc (Arg3.1), mouse, lacking helix H1 (residues 33-70); Made by PCR from the full-length GST-Arc construct; source: E. coli Rosetta 2, purified (glutathione resin, released with TEV protease; with or without 35% ammonium sulfate precipitation); not shown: GST, N-terminal, cleaved
# B2: Arc S84,90E phosphomimetic mutant (natural protein, mouse, UniProt Q9WV31 1-396, looked up)
# chain: MELDHMTTGGLHAYPAPRGGPAAKPNVILQIGKCRAEMLEHVRRTHRHLLTEVSKQVERELKGLHRSVGKLENNLDGYVPTGDEQRWKKEIKACLCRCQETIANLERWVKREMHVWREVFYRLERWADRLESMGGKYPVGSEPARHTVSVGVGGPEPYCQEADGYDYTVSPYAITPPPAAGELPEQESVEAQQYQSWGPGEDGQPSPGVDTQIFEDPREFLSHLEEYLRQVGGSEEYWLSQIQNHMNGPAKKWWEFKQGSVKNWVEFKKEFLQYSEGTLSREAIQRELELPQKQGEPLDQFLWRKRDLYQTLYVDAEEEEIIQYVVGTLQPKLKRFLRHPLPKTLEQLIQRGMEVQDGLEQAAEPSGTPLPTEDETEALTPALTSESVASDRTQPE
# notes: Arc (Arg3.1), mouse, with serines 84 and 90 mutated to glutamic acid; source: E. coli Rosetta 2, purified (glutathione resin, released with TEV protease); not shown: GST, N-terminal, cleaved
# Key:
# [1] = biological target: the molecule itself; assay: SEC; HiLoad 16/600 Superdex 200, solution B (20 mM HEPES pH 7.5, 100 mM NaCl, 0.5 mM TCEP), 4 °C; proteins prepared without ammonium sulfate treatment (bound nucleic acids kept); loads 25-70 µM
# [2] = biological target: the molecule itself; assay: dynamic light scattering; ~20 µM, 25 °C, 20 mM HEPES pH 7.5, 100 mM NaCl, 1 mM TCEP; Arc^WT was ammonium sulfate-treated (nucleotide-free)
Protein,binding result [1],binding result [2]
B1,binds,–
B2,–,binds
